The supplement of paper PMC10567573

B1: CHCHD3 (parent)
chain: YSGAYGASVSDEELKRRVAEELAL
B2: PTPRD (parent)
chain: ELDELLKEISRKRRSIRYGREVEL

Variants of: B1
Assay: protein stability index of a GFP-peptide fusion (GPS, HEK-293T) (PSI 1-6); higher = more stable
Details: c terminus: a fixed tail appended
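Further: lentivirally expressed fusions sorted by FACS into six bins by GFP to DsRed ratio, PSI derived from sequencing read proportions per bin multiplied by bin number.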

Protein stability index, by site and new letter:
S2: Y 4.05; R 4.62; I 2.17; V 1.9; D 5.1; T 2.27; L 2.88; F 3.45; N 3.63; K 4.35; W 4.26; Q 3.46; C 2.48; M 3.24; E 4.78; H 1.38; G 3.62; P 3.22
Y1: T 4.34; R 4.63; K 3.73; C 3.63; G 4.87; N 4.71; I 4.74; H 4.99; M 5.2; F 2.71; Q 5.07; D 5.4; L 4.87; A 4.93; S 5.45
Y5: Q 5.28; L 4.86; K 4.14; M 3.73; I 4.44; E 5.32; N 4.55; A 5.09; F 1.33; G 4.92; D 5.3; H 4.02; V 4.95; W 2.4; C 2.75; P 4.88; R 4.59; T 5.01; S 4.99
S8: R 2.88; C 2.04; I 2.08; V 1.78; L 1.42; K 3.2; E 3.77; W 4.28; H 2.98; N 3.22; M 3.52; F 2; D 4.18; T 2.01; G 3.1; Y 2.07; P 2.07; Q 3.02
A7: I 2.71; T 2.99; W 1.39; G 3.43; F 2.58; Y 2.61; L 2.42; R 2.77; K 2.38; Q 3.04; D 4.27; H 2.98; P 2.94; E 4.3; M 2.94; V 2.56; N 3.61; C 1.72; S 3.48
G3: L 4.33; P 3.78; C 2.73; E 4.87; F 3.05; M 3.81; K 3.17; T 2.9; H 4.1; V 3.98; A 2.94; Y 3.4; W 2.63; S 3.37; Q 3.96; D 5.41; N 4.18; I 4.29; R 3.56
A4: V 3.03; H 2.84; T 3.66; R 3.03; F 1.95; Q 2.61; W 2.11; M 2.59; L 2.7; D 4.64; S 3.39; N 2.97; E 3.31; K 2.63; Y 2.15; G 2.27; C 2.64; I 3.21; P 4.24
G6: Y 1.9; W 1.64; F 2.09; A 1.84; H 2.3; K 2.06; N 3.36; P 2.48; D 4.67; E 4.05; C 2.22; T 2.11; L 2.06; I 2.12; M 2.4; S 2.13; Q 2.81; R 2.42; V 2.48

Variants of: B2
Assay: as above
Details: c terminus: a fixed tail appended

Protein stability index of substitutions, site by site:
R20: C 2.01; S 3.33; A 2.85; G 2.23; H 2.08; Y 1.89; W 1.43; I 2.11; K 2.17; Q 2.42
L5: Q 4.14; I 2.45; R 3.18; M 3.25; T 3.58; D 3.73; A 3.07; V 2.86; N 2.69; E 4.15; G 3.96
L2: M 2.92; F 2.49; I 2.6; E 4.41; N 4.2; V 2.43; W 2.99
V22: C 2.29; P 2.04; I 2.17; A 1.82; Q 2.5; F 2.22; T 2.52; H 2.88
R13: M 2.21; W 1.72; A 2.38; I 2.23; V 1.55
R14: K 2.39; Y 1.66; C 2.19; S 2.9; T 2.38; I 1.99; G 3.16; H 2.92
Y18: H 2.33; S 2.91; G 2.51; D 2.6; Q 2.43; R 2.33; F 2.33; P 2.78
E1: D 2.3; K 2.26; T 3.25; P 3.07; N 2.56; A 2.54; C 2.07
E21: L 2.12; A 2.16; C 2.55; D 1.79; N 1.93
E23: N 2.54; V 2.57; G 2.41; L 2.85; D 2.12
S10: I 2.09; G 2.44; V 2.48; F 1.78
R11: P 3.04; K 1.84; V 3.18; F 2.76; Q 2.55; M 2.15; L 3.04
L24: H 2.91; Y 2.54; R 3.13; V 2.92; K 2.33; D 2.33; C 2.38; T 2.86; N 2.97; A 2.69
D3: M 1.65; R 1.86; E 2.51; Q 2.62; T 1.8
R17: Q 2.68; K 2.17; Y 2.6; G 2.19; C 2.34; L 2.55; I 2.46
I16: C 2.81; F 1.81; S 3.4; R 1.72; E 3.62; P 2.43; G 3.21; Y 1.75; T 2.57; K 1.9; M 2.54
K7: M 2.26; F 2; S 2.6; Y 2.77; P 3.12; T 3.09; R 2.27; N 2.16; V 2.07; Q 2.46
K12: T 2.56; Q 1.81; S 2.63; V 2.23; D 2.39; G 2.26; Y 1.55; E 2.32; L 1.95; A 1.99; H 2.03
E8: G 2.86; W 2.64; K 3.79; T 2.79; V 1.7
S15: M 2.54; P 2.6; T 2.99; R 2.22; Y 2.65; E 2.65; I 2.29
L6: Q 3.73; F 2.07; E 4.28; S 3.98; C 3.29; W 1.5; H 3.19
I9: L 2.21; K 3.96; Q 4.18; D 3.98; H 3.09; V 2.61; F 2.33; N 3.35; G 3.57; S 3.62
G19: Y 2.1; K 2.06; S 2.04; H 2.41; Q 2.33; V 3.13; R 1.96; F 1.71; L 2.13
E4: S 1.85; M 1.9; I 1.73; D 2.07; R 2.16; F 2.39; T 1.88; L 2.19; A 3.26; K 2.59; C 1.57
